What was measured:
[1] = target: US28 wild type, G protein-coupled receptor of human cytomegalovirus strain VHL/E (human cytomegalovirus strain VHL/E); assay: displacement of 125I-CCL5 from US28-expressing HEK293T membranes by unlabeled CCL5
[2] = target: US28 wild type, G protein-coupled receptor of human cytomegalovirus strain VHL/E (human cytomegalovirus strain VHL/E); assay: competition of unlabeled CCL5 against 125I-CCL5 on US28
[3] = target: US28 wild type, G protein-coupled receptor of human cytomegalovirus strain VHL/E (human cytomegalovirus strain VHL/E); assay: cell-based or functional assay

human chemokine CCL5, sequence (P13501 24-91 limits assumed): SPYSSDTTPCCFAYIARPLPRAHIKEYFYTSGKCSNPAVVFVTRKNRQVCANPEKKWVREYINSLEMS

Work on “human chemokine CCL5 (from UniProt P13501 24-91) (ligand)” yielded an IC50 (read off the curve) [1] of 3 nM, an IC50 (read off the curve) [2] of 1 nM and a CCL5-induced accumulation of inositol phosphates (EC80) [3] of 31.6 nM.

Reference: patent publication US12037382
